Results: article PMC11481384, “Ponicidin Promotes Hepatocellular Carcinoma Mitochondrial Apoptosis by Stabilizing Keap1‐PGAM5 Complex” (Advanced Science, 2024)

Biological target: T1, Keap1 Kelch domain (amino acid residues 309 to 624) (human, UniProt Q14145 309-624)
T1 construct: Keap1, Kelch domain, Gene ID 9817 (the human gene), amino acid residues 309 to 624; The species is not put in words; it follows from the printed Gene ID 9817; also called Kelch domain of Keap1; source: E. coli BL21 (Codonplus), purified (Ni-NTA, HiTrap QHP, Superdex 200 Increase)
T1 sequence (Q14145 309-624): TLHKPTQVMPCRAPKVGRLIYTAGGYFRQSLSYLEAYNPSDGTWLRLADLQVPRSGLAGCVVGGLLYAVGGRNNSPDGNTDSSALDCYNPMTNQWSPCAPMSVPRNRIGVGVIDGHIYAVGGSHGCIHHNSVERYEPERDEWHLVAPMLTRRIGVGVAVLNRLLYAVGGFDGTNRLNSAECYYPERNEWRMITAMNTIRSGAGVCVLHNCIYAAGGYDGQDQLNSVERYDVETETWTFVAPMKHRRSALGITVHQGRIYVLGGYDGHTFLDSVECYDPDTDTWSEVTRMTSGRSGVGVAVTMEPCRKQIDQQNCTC
Assay: native gel or EMSA; purified Kelch, Δ54‐PGAM5 and ponicidin incubated on ice for 30 min; 7% non‐denatured gel, 4 °C, 90 V, 1 h; Coomassie staining
Settings: both partners purified

B1: ∆54‐PGAM5 (amino acids from number 54 to 289) (domain or fragment, human, UniProt Q96HS1 54-289, looked up)
chain: GPGVWDPNWDRREPLSLINVRKRNVESGEEELASKLDHYKAKATRHIFLIRHSQYHVDGSLEKDRTLTPLGREQAELTGLRLASLGLKFNKIVHSSMTRAIETTDIISRHLPGVCKVSTDLLREGAPIEPDPPVSHWKPEAVQYYEDGARIEAAFRNYIHRADARQEEDSYEIFICHANVIRYIVCRALQFPPEGWLRLSLNNGSITHLVIRPNGRVALRTLGDTGFMPPDKITRS
notes: PGAM5, Gene ID 192111 (the human gene), amino acid residues 54 to 289; The species is not put in words; it follows from the printed Gene ID 192111; also called Δ54‐PGAM5; PGAM5 domain; source: E. coli BL21 (Codonplus), purified (Ni-NTA, HiTrap QHP, Superdex 200 Increase)
  binding result: binds
